B1: HDV Ribozyme (parent)
chain: GGCCGGCAUGGUCCCAGCCUCCUCGCUGGCGCCGGCUGGGCAACAUUCCGAGGGGACCGUCCCCUCGGUAAUGGCGAAUGGGACCCA

Variants of: B1
Experiment: self-cleavage, relative activity (ratio to wild type); higher = more cleavage; co-transcriptional

Variant | self-cleavage
GGCCGGCAUGGUCCCAGCCUCCUCGCUGGCGCCGGCUGGGCAACAUUCCGUGGGGACCUUCCCCUCGGUAAUGGCGAAUGGGACCCA | 1.02
GGCCGGCAUGGUCCCAGCCUCCUCGCUGGCGCCGGCUGGGCAACAUUCCGUGGGGACCCUCCCCUCGGUAAUGGCGAAUGGGACCCA | 0.755
GGCCGGCAUGGUCCCAGCCUCCUCGCUGGCGCCGGCUGGGCAACAUUCCGUGGGGACCGUCCCCUCGGUAAUGGCGAAUGGUACCCA | 0.373
GGCCGGCAUGGUCCCAGCCUCCUCGCUGGCGCCGGCUGGGCAACAUUCCGUGGGGACCGUCCCCUCGGUAAUGGCGAAUGGAACCCA | 0.543
GGCCGGCAUGGUCCCAGCCUCCUCGCUGGCGCCGGCUGGGCAACAUUCCGAAUGGACCGUCCCCUCGGUAAUGGCGAAUGGGACCCA | 0.773
GGCCGGCAUGGUCCCAGCCUCCUCGCUGGCGCCGGCUGGGCAACAUUCCGAAGGGACCGUCCCCUCGGUAAUGGCGUAUGGGACCCA | 0.694
GGCCGGCAUGGUCCCAGCCUCCUCGCUGGCGCCGGCUGGGCAACAUUCCGGGGGGACCGUCCCCUCGGUAAUGGCGAACGGGACCCA | 0.354
GGCCGGCAUGGUCCCAGCCUCCUCGCUGGCGCCGGCUGGGCAACAUUCCGAAGGGACCGUCCCCUCGGUAAUGGCGAAUGGGCCCCA | 0.374
GGCCGGCAUGGUCCCAGCCUCCUCGCUGGCGCCGGCUGGGCAACAUUCCGAAGGGACCGUCCCCUCGGUAAUGGCGAAUGGAACCCA | 0.439
GGCCGGCAUGGUCCCAGCCUCCUCGCUGGCGCCGGCUGGGCAACAUUCCGAAGGGAGCGUCCCCUCGGUAAUGGCGAAUGGGACCCA | 1.01
GGCCGGCAUGGUCCCAGCCUCCUCGCUGGCGCCGGCUGGGCAACAUUCCGAAGGGAUCGUCCCCUCGGUAAUGGCGAAUGGGACCCA | 1.06
GGCCGGCAUGGUCCCAGCCUCCUCGCUGGCGCCGGCUGGGCAACAUUCCGAAGGGACCGUCCCAUCGGUAAUGGCGAAUGGGACCCA | 0.786
GGCCGGCAUGGUCCCAGCCUCCUCGCUGGCGCCGGCUGGGCAACAUUCCGUGGGGACCGUCCCCUAGGUAAUGGCGAAUGGGACCCA | 0.764
GGCCGGCAUGGUCCCAGCCUCCUCGCUGGCGCCGGCUGGGCAACAUUCCGUGGGGACCGUCCCCUCGGUAAUGGCUAAUGGGACCCA | 1.11
GGCCGGCAUGGUCCCAGCCUCCUCGCUGGCGCCGGCUGGGCAACAUUCCGUGGGGACCGUCCCCUCGGUAAUGGCAAAUGGGACCCA | 0.961
GGCCGGCAUGGUCCCAGCCUCCUCGCUGGCGCCGGCUGGGCAACAUUCCGUGGGGACCGUCCCCUCGGUAAUGGCCAAUGGGACCCA | 1.23

Variant | self-cleavage
GGCCGGCAUGGUCCCAGCCUCCUCGCUGGCGCCGGCUGGGCAACAUUCCGUGGGGACCGUCCCCUCGGUAAUGGCGAAUCGGACCCA | 0.208
GGCCGGCAUGGUCCCAGCCUCCUCGCUGGCGCCGGCUGGGCAACAUUCCGUGGGGACCGUCCCCUCGGUACUGGCGAAUGGGACCCA | 0.856
GGCCGGCAUGGUCCCAGCCUCCUCGCUGGCGCCGGCUGGGCAACAUUCCGAAGGGACCGUCCCCUCGGUAAUGGCGAGUGGGACCCA | 0.604
GGCCGGCAUGGUCCCAGCCUCCUCGCUGGCGCCGGCUGGGCAACAUUCCGUGGGGACCGUCCCCUCGGUCAUGGCGAAUGGGACCCA | 0.886
GGCCGGCAUGGUCCCAGCCUCCUCGCUGGCGCCGGCUGGGCAACAUUCCGUGGGGACCGUCCCCUCGGUUAUGGCGAAUGGGACCCA | 0.849
GGCCGGCAUGGUCCCAGCCUCCUCGCUGGCGCCGGCUGGGCAACAUUCCGUGGGGACCGUCCCCUCGGUGAUGGCGAAUGGGACCCA | 0.972
GGCCGGCAUGGUCCCAGCCUCCUCGCUGGCGCCGGCUGGGCAACAUUCCGUGGGGAGCGUCCCCUCGGUAAUGGCGAAUGGGACCCA | 1.04
GGCCGGCAUGGUCCCAGCCUCCUCGCUGGCGCCGGCUGGGCAACAUUCCGAAGGUACCGUCCCCUCGGUAAUGGCGAAUGGGACCCA | 0.934
GGCCGGCAUGGUCCCAGCCUCCUCGCUGGCGCCGGCUGGGCAACAUUCCGAAGGGACAGUCCCCUCGGUAAUGGCGAAUGGGACCCA | 1.14
GGCCGGCAUGGUCCCAGCCUCCUCGCUGGCGCCGGCUGGGCAACAUUCCGAAGGGACCGUCCCCUCGGUAAUUGCGAAUGGGACCCA | 0.338
GGCCGGCAUGGUCCCAGCCUCCUCGCUGGCGCCGGCUGGGCAACAUUCCGUGGGGACCGUCCCCUCGGUAAUGGCGAAUGGGACACA | 0.956
GGCCGGCAUGGUCCCAGCCUCCUCGCUGGCGCCGGCUGGGCAACAUUCCGUGGUGACCGUCCCCUCGGUAAUGGCGAAUGGGACCCA | 1.02
GGCCGGCAUGGUCCCAGCCUCCUCGCUGGCGCCGGCUGGGCAACAUUCCGUGGGGACCGUCCCCUCGGUAAUGGCGAAUGGGAACCA | 0.916
GGCCGGCAUGGUCCCAGCCUCCUCGCUGGCGCCGGCUGGGCAACAUUCCGUGGGGACCGUCCCCUCGGUAAUGGCGAAUGGGACCCU | 1.03
GGCCGGCAUGGUCCCAGCCUCCUCGCUGGCGCCGGCUGGGCAACAUUCCGUGGGGACCGUCCCCUCGGUAAAGGCGAAUGGGACCCA | 0.628
GGCCGGCAUGGUCCCAGCCUCCUCGCUGGCGCCGGCUGGGCAACAUUCCGUGGGGACCGUCCCCUCGGUAACGGCGAAUGGGACCCA | 0.608
